In publication PMC7612376, “Structural basis of meiotic chromosome synaptic elongation through hierarchical fibrous assembly of SYCE2-TEX12” (Nature structural & molecular biology, 2021):
Positions count from the first letter of the chain named. Names may count otherwise.

B1: TEX12 core ΔCtip (49-113) of the SYCE2-TEX12 core MBP-fusion proteins (domain or fragment, human, UniProt Q9BXU0 49-113, looked up)
chain: KDEALEKDLNDVSKEINLMLSTYAKLLSERAAVDASYIDEIDELFKEANAIENFLIQKREFLRQR
notes: TEX12, human, core ΔCtip, residues 49-113; also called ΔCtip in the MBP-fusion complex; source: E. coli BL21 (DE3), co-expressed with MBP-SYCE2, purified
B2: SYCE2-TEX12 core ΔS2C/ΔCtip 2:2 complex (complex, human)
chain 1: GLYFSSLDSSIDILQKRAQELIENINKSRQKDHALMTNFRNSLKTKVSDLTEKLEERIYQIYNDHNKIIQEKLQEFTQKMAKISHLETELKQVCHSVE
chain 2: B1 chain
notes: SYCE2, human, ΔS2C, residues 57-154; TEX12, human, core ΔCtip, residues 49-113; m3 + m10; also called ΔS2C/ΔCtip core complex; source: E. coli BL21 (DE3), co-expressed, purified (Ni-NTA, amylose, ion exchange, SEC); not shown: MBP, N-terminal, cleaved; His6, N-terminal, cleaved; copies: 2 + 2
B3: TEX12 core ΔCtip (amino-acids 49-113) (domain or fragment, human, UniProt Q9BXU0 49-113, looked up)
chain: B1 chain
notes: TEX12, human, core ΔCtip, residues 49-113; source: E. coli BL21 (DE3), co-expressed with SYCE2, purified (Ni-NTA, amylose, ion exchange, SEC); not shown: His6, N-terminal, cleaved
B4: TEX12 full-length (1-123) (natural protein, human, UniProt Q9BXU0 1-123, looked up)
chain: MMANHLVKPDNRNCKRPRELESPVPDSPQLSSLGKSDSSFSEISGLFYKDEALEKDLNDVSKEINLMLSTYAKLLSERAAVDASYIDEIDELFKEANAIENFLIQKREFLRQRFTVIANTLHR
notes: TEX12, human, full-length, residues 1-123; source: E. coli BL21 (DE3), co-expressed with SYCE2, purified (Ni-NTA, amylose, ion exchange, SEC); not shown: His6, N-terminal, cleaved
B5: SYCE2-TEX12 full-length FFV (TEX12 F102A F109A V116A), 2:2 building block (complex, human)
chain 1: MERQGVDVPHVKCKDQEPQPLGESKEHPRWEENCEEEAGGGPASASCQLTVLEGKSGLYFSSLDSSIDILQKRAQELIENINKSRQKDHALMTNFRNSLKTKVSDLTEKLEERIYQIYNDHNKIIQEKLQEFTQKMAKISHLETELKQVCHSVETVYKDLCLQPEQSLRLRWGPDHSRGKSPPRPGNSQPPDVFVSSVAETTSQATASEVQTNRDGEC
chain 2: B4 chain with F102A, F109A, V116A
notes: SYCE2, human, full-length, residues 1-218; TEX12, human, full-length, residues 1-123, with F102A, F109A and V116A; m2 + m14; source: E. coli BL21 (DE3), co-expressed, purified (Ni-NTA, amylose, ion exchange, SEC); not shown: MBP, N-terminal, cleaved; His6, N-terminal, cleaved; copies: 2 + 2
B6: SYCE2-TEX12 full-length wild-type, 2:2 building block (complex, human)
chain 1: B5 chain 1
chain 2: B4 chain
notes: SYCE2, human, full-length, residues 1-218; TEX12, human, full-length, residues 1-123; m2 + m9; also called full-length SYCE2-TEX12; source: E. coli BL21 (DE3), co-expressed, purified (Ni-NTA, amylose, ion exchange, SEC); not shown: MBP, N-terminal, cleaved; His6, N-terminal, cleaved; copies: 2 + 2
B7: TEX12 full-length L110E F114E I117E L121E (natural protein, human, UniProt Q9BXU0 1-123, looked up)
chain: B4 chain with L110E, F114E, I117E, L121E
notes: TEX12, human, full-length, residues 1-123, with L110E, F114E, I117E and L121E; also called LFIL (full-length); source: E. coli BL21 (DE3), co-expressed with SYCE2, purified (Ni-NTA, amylose, ion exchange, SEC); not shown: His6, N-terminal, cleaved
B8: TEX12 full-length F102A F109A V116A (natural protein, human, UniProt Q9BXU0 1-123, looked up)
chain: B4 chain with F102A, F109A, V116A
notes: TEX12, human, full-length, residues 1-123, with F102A, F109A and V116A; also called FFV (full-length); source: E. coli BL21 (DE3), co-expressed with SYCE2, purified (Ni-NTA, amylose, ion exchange, SEC); not shown: His6, N-terminal, cleaved
B9: TEX12 core F102A F109A V116A (domain or fragment, human, UniProt Q9BXU0 49-123, looked up)
chain: KDEALEKDLNDVSKEINLMLSTYAKLLSERAAVDASYIDEIDELFKEANAIENALIQKREALRQRFTAIANTLHR
notes: TEX12, human, core, residues 49-123, with F102A, F109A and V116A; also called FFV (core); source: E. coli BL21 (DE3), co-expressed with SYCE2, purified (Ni-NTA, amylose, ion exchange, SEC); not shown: His6, N-terminal, cleaved
B10: SYCE2-TEX12 core wild-type, 2:2 building block (complex, human)
chain 1: GLYFSSLDSSIDILQKRAQELIENINKSRQKDHALMTNFRNSLKTKVSDLTEKLEERIYQIYNDHNKIIQEKLQEFTQKMAKISHLETELKQVCHSVETVYKDLCLQPE
chain 2: B9 chain with A54F, A61F, A68V
notes: SYCE2, human, core, residues 57-165; TEX12, human, core, residues 49-123; in solution it is found as 4:4 complex and larger assemblies, which are the rows of this molecule with itself; also called core complex; wild-type core; source: E. coli BL21 (DE3), co-expressed, purified (Ni-NTA, amylose, ion exchange, SEC); not shown: MBP, N-terminal, cleaved; His6, N-terminal, cleaved; copies: 2 + 2
B11: SYCE2-TEX12 core H89E/Y115E, 2:2 building block (complex, human)
chain 1: B10 chain 1 with H33E, Y59E
chain 2: B9 chain with A54F, A61F, A68V
notes: SYCE2, human, core, residues 57-165, with H89E and Y115E; TEX12, human, core, residues 49-123; m4 + m8; also called H89E Y115E mutation; source: E. coli BL21 (DE3), co-expressed, purified (Ni-NTA, amylose, ion exchange, SEC); not shown: MBP, N-terminal, cleaved; His6, N-terminal, cleaved; copies: 2 + 2
B12: SYCE2-TEX12 core wild-type MBP-fusion, 2:2 building block (complex, human)
chain 1: B10 chain 1
chain 2: B9 chain with A54F, A61F, A68V
notes: SYCE2, human, core, residues 57-165; TEX12, human, core, residues 49-123; m6 + m16; found as a 4:4 complex in solution; also called SYCE2-TEX12 core MBP-fusion wild-type; source: E. coli BL21 (DE3), co-expressed, purified; not shown: MBP, N-terminal, kept; copies: 2 + 2
B13: TEX12 core (49-123) of the SYCE2-TEX12 core MBP-fusion proteins (domain or fragment, human, UniProt Q9BXU0 49-123, looked up)
chain: B9 chain with A54F, A61F, A68V
notes: TEX12, human, core, residues 49-123; also called TEX12 core in the MBP-fusion complexes; source: E. coli BL21 (DE3), co-expressed with MBP-SYCE2, purified
B14: TEX12 core L110E F114E I117E L121E (domain or fragment, human, UniProt Q9BXU0 49-123, looked up)
chain: B9 chain with A54F, A61F, L62E, F66E, A68V, I69E, L73E
notes: TEX12, human, core, residues 49-123, with L110E, F114E, I117E and L121E; also called LFIL (core); source: E. coli BL21 (DE3), co-expressed with SYCE2, purified (Ni-NTA, amylose, ion exchange, SEC); not shown: His6, N-terminal, cleaved
B15: TEX12 ΔCtip (amino-acids 1-113) (domain or fragment, human, UniProt Q9BXU0 1-113, looked up)
chain: MMANHLVKPDNRNCKRPRELESPVPDSPQLSSLGKSDSSFSEISGLFYKDEALEKDLNDVSKEINLMLSTYAKLLSERAAVDASYIDEIDELFKEANAIENFLIQKREFLRQR
notes: TEX12, human, ΔCtip, residues 1-113; also called TEX12 ΔCtip truncation; source: E. coli BL21 (DE3), co-expressed with SYCE2, purified (Ni-NTA, amylose, ion exchange, SEC); not shown: His6, N-terminal, cleaved
B16: SYCE2 core (amino-acids 57-165) (domain or fragment, human, UniProt Q6PIF2 57-165, looked up)
chain: B10 chain 1
notes: SYCE2, human, core, residues 57-165; also called SYCE2 structural core; source: E. coli BL21 (DE3), co-expressed with TEX12, purified (Ni-NTA, amylose, ion exchange, SEC); not shown: MBP, N-terminal, cleaved

Columns and labels:
[1] = target: SYCE2-TEX12 core ΔCtip 2:2 complex (human) (UniProt Q6PIF2); assay: SEC-MALS; co-purified complexes at >1 mg/ml on Superdex 200 Increase 10/300 GL in 20 mM Tris pH 8.0, 150 mM KCl, 2 mM DTT; in Fig. 1 core at 200 uM and full-length at 100 uM (4 mg/ml)
[2] = target: SYCE2-TEX12 full-length ΔCtip 2:2 complex (human) (UniProt Q6PIF2); assay: as above
[3] = target: SYCE2-TEX12 core FFV (TEX12 F102A F109A V116A), 2:2 building block (human) (UniProt Q6PIF2); assay: as above
[4] = target: T1, MBP-SYCE2 core (57-165) fusion protein (human, UniProt Q6PIF2 57-165); assay: as above; settings: both partners purified
T1 construct: SYCE2, human, core, residues 57-165; also called SYCE2-TEX12 core MBP-fusion, SYCE2 chain; source: E. coli BL21 (DE3), co-expressed with TEX12, purified; not shown: MBP, N-terminal, kept
T1 sequence (looked up): B10 chain 1

[5] = target: the molecule itself; assay: as above
[6] = target: the molecule itself; assay: crystal structure; SYCE2-TEX12 core ΔCtip 2:2 complex, 33 mg/ml, 35 % MPD, 20°C; space group P21; PDB 6R17
[7] = target: T2, SYCE2 core ΔS2C (amino-acids 57-154) (human, UniProt Q6PIF2 57-154); assay: SEC-MALS; co-purified complexes at >1 mg/ml on Superdex 200 Increase 10/300 GL in 20 mM Tris pH 8.0, 150 mM KCl, 2 mM DTT; in Fig. 1 core at 200 uM and full-length at 100 uM (4 mg/ml); settings: both partners purified
T2 construct: SYCE2, human, ΔS2C, residues 57-154; source: E. coli BL21 (DE3), co-expressed with TEX12, purified (Ni-NTA, amylose, ion exchange, SEC); not shown: MBP, N-terminal, cleaved
T2 sequence (looked up): B2 chain 1

[8] = target: B16; assay: as above; settings: both partners purified
[9] = target: T3, SYCE2 full-length (1-218) (human, UniProt Q6PIF2 1-218); assay: as above; settings: both partners purified
T3 construct: SYCE2, human, full-length, residues 1-218; source: E. coli BL21 (DE3), co-expressed with TEX12, purified (Ni-NTA, amylose, ion exchange, SEC); not shown: MBP, N-terminal, cleaved
T3 sequence (looked up): B5 chain 1

[10] = target: T4, MBP-SYCE2 core ΔS2C (57-154) fusion protein (human, UniProt Q6PIF2 57-154); assay: as above; settings: both partners purified
T4 construct: SYCE2, human, ΔS2C, residues 57-154; also called ΔS2C MBP-fusion, SYCE2 chain; source: E. coli BL21 (DE3), co-expressed with TEX12, purified; not shown: MBP, N-terminal, kept
T4 sequence (looked up): B2 chain 1

SYCE2-TEX12 core ΔCtip 2:2 complex (from UniProt Q6PIF2 57-165; Q9BXU0 49-113)
percent of total mass as 2:2 complex (not self-associated) [1]: 98% | percent of total mass as 4:4 complex [1]: 2% | stoichiometry N (2:2 building blocks) [1]: 2

SYCE2-TEX12 full-length ΔCtip 2:2 complex (from UniProt Q6PIF2 1-218; Q9BXU0 1-113)
percent of total mass as 2:2 complex (not self-associated) [2]: 98% | percent of total mass as 4:4 complex [2]: 2% | stoichiometry N (2:2 building blocks) [2]: 2

SYCE2-TEX12 core FFV (TEX12 F102A F109A V116A), 2:2 building block (from UniProt Q6PIF2 57-165; Q9BXU0 49-123) (complex)
stoichiometry N (2:2 building blocks) [3]: 2

B1
stoichiometry N [4]: 1 TEX12 per SYCE2 (2:2)

B2
percent of total mass as 2:2 complex (not self-associated) [5]: 86% | percent of total mass as 4:4 complex [5]: 14% | stoichiometry N [5]: 2 2:2 building blocks

B3
binding result [6]: binds | stoichiometry N [7]: 1 TEX12 per SYCE2 (2:2) | stoichiometry N [8]: 1 TEX12 per SYCE2 (2:2)

B4
stoichiometry N [9]: 1 TEX12 per SYCE2 (2:2)

B5
percent of total mass as 2:2 complex (not self-associated) [5]: 15% | percent of total mass as 4:4 complex [5]: 20% | stoichiometry N [5]: 2 2:2 building blocks

B6
percent of total mass as 2:2 complex (not self-associated) [5]: 12% | percent of total mass as 4:4 complex [5]: 18% | stoichiometry N [5]: 2 2:2 building blocks

B7
stoichiometry N [9]: 1 TEX12 per SYCE2 (2:2)

B8
stoichiometry N [9]: 1 TEX12 per SYCE2 (2:2)

B9
stoichiometry N [8]: 1 TEX12 per SYCE2 (4:4)

B10
percent of total mass as 4:4 complex [5]: 75% | stoichiometry N [5]: 2 2:2 building blocks

B11
percent of total mass as 2:2 complex (not self-associated) [5]: 60% | percent of total mass as 4:4 complex [5]: 40% | stoichiometry N [5]: 2 2:2 building blocks

B12
stoichiometry N [5]: 2 2:2 building blocks

B13
stoichiometry N [10]: 1 TEX12 per SYCE2 (2:2) | stoichiometry N [4]: 1 TEX12 per SYCE2 (4:4)

B14
stoichiometry N [8]: 1 TEX12 per SYCE2 (2:2)

B15
stoichiometry N [9]: 1 TEX12 per SYCE2 (2:2)

B16
binding result [6]: binds
